What was measured:
[1] = target: IL-12 receptor (human IL-12Rb1 and IL-12Rb2 on IL-12 bioassay cells) (human) (UniProt P42701)
[2] = target: IL-12 receptor (human IL-12Rb1 and IL-12Rb2 on IL-12 bioassay cells) (human) (UniProt P42701); remark: listed apart in the source
[3] = target: IL-12 receptor (human IL-12Rb1 and IL-12Rb2 on IL-12 bioassay cells) (human) (UniProt P42701); remark: listed apart in the source
[4] = target: IL-12 receptor (human IL-12Rb1 and IL-12Rb2 on IL-12 bioassay cells) (human) (UniProt P42701); remark: listed apart in the source

Sequence of IL-12 receptor (human IL-12Rb1 and IL-12Rb2 on IL-12 bioassay cells) (human) (Q99665 24-862, chain 2 of 2, other chains not shown): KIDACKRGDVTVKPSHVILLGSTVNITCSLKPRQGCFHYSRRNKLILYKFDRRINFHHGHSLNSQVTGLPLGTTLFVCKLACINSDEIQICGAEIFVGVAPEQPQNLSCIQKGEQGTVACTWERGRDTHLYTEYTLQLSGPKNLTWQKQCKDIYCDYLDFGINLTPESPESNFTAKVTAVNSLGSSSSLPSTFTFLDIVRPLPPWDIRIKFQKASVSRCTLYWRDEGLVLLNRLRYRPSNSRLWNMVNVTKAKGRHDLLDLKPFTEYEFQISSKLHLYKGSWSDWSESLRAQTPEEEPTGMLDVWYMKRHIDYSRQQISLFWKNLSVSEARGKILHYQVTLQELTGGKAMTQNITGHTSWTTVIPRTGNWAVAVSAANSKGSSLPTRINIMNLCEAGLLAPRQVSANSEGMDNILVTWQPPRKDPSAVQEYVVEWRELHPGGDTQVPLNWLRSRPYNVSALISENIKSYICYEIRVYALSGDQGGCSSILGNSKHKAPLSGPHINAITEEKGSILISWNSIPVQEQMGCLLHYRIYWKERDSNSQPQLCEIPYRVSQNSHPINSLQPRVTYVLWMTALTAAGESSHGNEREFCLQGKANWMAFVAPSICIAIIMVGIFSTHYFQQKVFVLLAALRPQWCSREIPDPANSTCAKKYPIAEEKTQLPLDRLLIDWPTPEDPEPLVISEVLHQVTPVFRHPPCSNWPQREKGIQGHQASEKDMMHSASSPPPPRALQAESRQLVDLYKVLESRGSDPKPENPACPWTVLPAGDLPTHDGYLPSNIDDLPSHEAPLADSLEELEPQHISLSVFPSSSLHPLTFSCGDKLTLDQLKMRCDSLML
Sequence of hIL12 + MTSP1 (P29459 23-219): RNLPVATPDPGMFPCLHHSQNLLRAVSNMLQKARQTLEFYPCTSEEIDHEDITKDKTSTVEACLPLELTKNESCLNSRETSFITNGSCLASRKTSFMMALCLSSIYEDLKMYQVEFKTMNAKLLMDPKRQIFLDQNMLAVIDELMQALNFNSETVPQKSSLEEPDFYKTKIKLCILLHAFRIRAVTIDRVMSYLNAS
Sequence of hIL12 + MTSP1 (P29460 23-328): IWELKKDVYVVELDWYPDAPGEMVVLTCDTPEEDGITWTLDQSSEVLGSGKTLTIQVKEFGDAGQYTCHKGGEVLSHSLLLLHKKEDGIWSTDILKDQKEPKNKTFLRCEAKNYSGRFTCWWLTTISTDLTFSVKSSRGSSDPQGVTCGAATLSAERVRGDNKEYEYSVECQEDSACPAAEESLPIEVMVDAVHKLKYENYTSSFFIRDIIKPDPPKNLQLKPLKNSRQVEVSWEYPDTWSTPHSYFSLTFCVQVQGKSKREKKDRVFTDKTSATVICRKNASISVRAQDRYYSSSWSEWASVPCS

**Q.** For “hIL12 + MTSP1 (from UniProt P29459;P29460) (ligand)”, which EC50 (read off the curve) (luciferase activity, AU; the assay is not described for this figure) [1] is on record?
**A.** Its EC50 (read off the curve) (luciferase activity, AU; the assay is not described for this figure) is 0.3 nM.

**Q.** What does the source list for hIL12_His tag (ligand)?
**A.** EC50 (read off the curve) (luciferase reporter in IL-12 bioassay cells expressing human IL-12Rb1, IL-12Rb2 and STAT4) [2]: 0.2 nM; EC50 (read off the curve) (luciferase reporter in IL-12 bioassay cells expressing human IL-12Rb1, IL-12Rb2 and STAT4) [left graph] [3]: 0.1 nM; EC50 (read off the curve) (luciferase reporter in IL-12 bioassay cells expressing human IL-12Rb1, IL-12Rb2 and STAT4) [all three graphs] [4]: 0.2 nM

**Q.** With hIL12_His tag + MTSP1 (ligand) as the substance, how does the EC50 (read off the curve) (luciferase reporter in IL-12 bioassay cells expressing human IL-12Rb1, IL-12Rb2 and STAT4) [2] read?
**A.** The EC50 (read off the curve) (luciferase reporter in IL-12 bioassay cells expressing human IL-12Rb1, IL-12Rb2 and STAT4) was 0.2 nM.

**Q.** What about the EC50 (read off the curve) (luciferase reporter in IL-12 bioassay cells expressing human IL-12Rb1, IL-12Rb2 and STAT4) [all three graphs] [4] of the same substance?
**A.** Its EC50 (read off the curve) (luciferase reporter in IL-12 bioassay cells expressing human IL-12Rb1, IL-12Rb2 and STAT4) [all three graphs] is 0.2 nM.

From US20240343771A1
